Among the data in article PMC12796354 are stoichiometry N values, retold here.

Assay [1] concerns the target baseplate center piece protein (gp114) of phage 7-7-1 (Agrobacterium phage 7-7-1). Description: cryo-EM structure; single particle analysis of purified virions; baseplate region, local refinements: baseplate core complex C6 3.4 Å, tail fibers C1 3.5 Å.
For assay [2], the target named is baseplate central hub protein (gp113) of phage 7-7-1 (Agrobacterium phage 7-7-1). Described as above.
For assay [3], the target named is baseplate wedge 1 (gp111) of phage 7-7-1 (Agrobacterium phage 7-7-1). The assay is described as above.
Assay [4] concerns the target baseplate wedge 2 (gp110) of phage 7-7-1 (Agrobacterium phage 7-7-1). The assay is described as above.
The target in assay [5] is central spike protein (gp112) of phage 7-7-1 (Agrobacterium phage 7-7-1). The assay is described as above.
The target of assay [6] is decoration protein (gp002) of phage 7-7-1 (Agrobacterium phage 7-7-1). Description: cryo-EM structure; single particle analysis of purified virions in TM buffer (10 mM MgSO4, 20 mM Tris/HCl, pH 7.5); DNA-filled capsid, icosahedral symmetry, 3.4 Å.
In assay [7] the target is garland protein (gp014) of phage 7-7-1 (Agrobacterium phage 7-7-1). Description: cryo-EM structure; single particle analysis of purified virions; baseplate region, local refinements: baseplate core complex C6 3.4 Å, tail fibers C1 3.5 Å.
Assay [8] concerns the target long tail fiber (gp015) of phage 7-7-1 (Agrobacterium phage 7-7-1). The assay is described as above.
Assay [9] concerns the target major capsid protein (gp003) of phage 7-7-1 (Agrobacterium phage 7-7-1). In words: cryo-EM structure; single particle analysis of purified virions in TM buffer (10 mM MgSO4, 20 mM Tris/HCl, pH 7.5); DNA-filled capsid, icosahedral symmetry, 3.4 Å.
Assay [10] has as its target neck 1 protein (gp119) of phage 7-7-1 (Agrobacterium phage 7-7-1). Description: cryo-EM structure; single particle analysis of purified virions; neck region, local refinements: portal C12 3.2 Å, collar C15 3.3 Å, neck 1 C3 3.5 Å, neck 2 + tail terminator + tail sheath + tail tube C6 3.6 Å.
In assay [11] the target is neck 2 protein (gp121) of phage 7-7-1 (Agrobacterium phage 7-7-1). The description is as above.
The target in assay [12] is portal protein (gp005) of phage 7-7-1 (Agrobacterium phage 7-7-1). The assay is described as above.
In assay [13] the target is short tail fiber (gp008) of phage 7-7-1 (Agrobacterium phage 7-7-1). In words: cryo-EM structure; single particle analysis of purified virions; baseplate region, local refinements: baseplate core complex C6 3.4 Å, tail fibers C1 3.5 Å.
Assay [14] deals with tail terminator protein (gp124) of phage 7-7-1 (Agrobacterium phage 7-7-1). In words: cryo-EM structure; single particle analysis of purified virions; neck region, local refinements: portal C12 3.2 Å, collar C15 3.3 Å, neck 1 C3 3.5 Å, neck 2 + tail terminator + tail sheath + tail tube C6 3.6 Å.
For assay [15], the target named is tail tube protein (gp127) of phage 7-7-1 (Agrobacterium phage 7-7-1). Description: cryo-EM structure; single particle analysis of purified virions; extended tail, C6 helical refinement, twist 27.35°, rise 35.25 Å, 3.1 Å.
Assay [16] has the same target. Description: cryo-EM structure; single particle analysis of purified virions; neck region, local refinements: portal C12 3.2 Å, collar C15 3.3 Å, neck 1 C3 3.5 Å, neck 2 + tail terminator + tail sheath + tail tube C6 3.6 Å.

Values joined by “and” are separate entries in the source; they are usually repeats but may differ in a detail not shown here. Identical values can stand only once.

For “baseplate center piece protein (gp114) of phage 7-7-1 (natural protein)”, the stoichiometry N (usually a count of units in the complex or per binding partner) in assay [1] turned out to be 6.

In [2], “baseplate central hub protein (gp113) of phage 7-7-1 (natural protein)” gave a stoichiometry N of 3. In assay [3], “baseplate wedge 1 (gp111) of phage 7-7-1 (natural protein)” showed a stoichiometry N of 6. In turn, “baseplate wedge 2 (gp110) of phage 7-7-1 (natural protein)” displayed a stoichiometry N in [4] of 2. For the substance “central spike protein (gp112) of phage 7-7-1 (natural protein)”, the stoichiometry N in assay [5] was determined as 3.

“decoration protein (gp002) of phage 7-7-1 (natural protein)” came in with a stoichiometry N in assay [6] of 2. The substance “garland protein (gp014) of phage 7-7-1 (natural protein)” yielded a stoichiometry N in [7] of 2.

For the substance “long tail fiber (gp015) of phage 7-7-1 (natural protein)”, the stoichiometry N in assay [8] is 3. Consider “major capsid protein (gp003) of phage 7-7-1 (natural protein)”, for which, in assay [9], the stoichiometry N is 6 and 5. With “neck 1 protein (gp119) of phage 7-7-1 (natural protein)”, the stoichiometry N in [10] was 12.

“neck 2 protein (gp121) of phage 7-7-1 (natural protein)”: in assay [11], the stoichiometry N stood at 6.

Consider “portal protein (gp005) of phage 7-7-1 (natural protein)”, for which the stoichiometry N in [12] is 12. In the case of “short tail fiber (gp008) of phage 7-7-1 (natural protein)”, in assay [13], the stoichiometry N is 3. As for “tail terminator protein (gp124) of phage 7-7-1 (natural protein)”, the stoichiometry N in [14] came out at 6. As for “tail tube protein (gp127) of phage 7-7-1 (natural protein)”, the stoichiometry N in assay [15] and in [16] was 6 in each case.
